Assay results: US20250262210A1 (TRUSTEES OF COLUMBIA UNIVERSITY IN THE CITY OF NEW YORK, published 2025)

Key:
Experiment in all cases: IP/MS, LZTR1 wild type-FLAG, U87
MTR = MTR (human, UniProt Q99707 1-1265, limits assumed)
Summary of the method: (§1)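 Gel slices were reduced with 5 mM DTT, alkylated with 11 mM IAA and digested overnight at 37° C. with trypsin. Peptides were analysed on an Orbitrap Fusion Tribrid by LC-MS/MS.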

ANKRD52 = target: T1, ANKRD52 (human, UniProt Q8NB46 1-1076)
T1 sequence (looked up): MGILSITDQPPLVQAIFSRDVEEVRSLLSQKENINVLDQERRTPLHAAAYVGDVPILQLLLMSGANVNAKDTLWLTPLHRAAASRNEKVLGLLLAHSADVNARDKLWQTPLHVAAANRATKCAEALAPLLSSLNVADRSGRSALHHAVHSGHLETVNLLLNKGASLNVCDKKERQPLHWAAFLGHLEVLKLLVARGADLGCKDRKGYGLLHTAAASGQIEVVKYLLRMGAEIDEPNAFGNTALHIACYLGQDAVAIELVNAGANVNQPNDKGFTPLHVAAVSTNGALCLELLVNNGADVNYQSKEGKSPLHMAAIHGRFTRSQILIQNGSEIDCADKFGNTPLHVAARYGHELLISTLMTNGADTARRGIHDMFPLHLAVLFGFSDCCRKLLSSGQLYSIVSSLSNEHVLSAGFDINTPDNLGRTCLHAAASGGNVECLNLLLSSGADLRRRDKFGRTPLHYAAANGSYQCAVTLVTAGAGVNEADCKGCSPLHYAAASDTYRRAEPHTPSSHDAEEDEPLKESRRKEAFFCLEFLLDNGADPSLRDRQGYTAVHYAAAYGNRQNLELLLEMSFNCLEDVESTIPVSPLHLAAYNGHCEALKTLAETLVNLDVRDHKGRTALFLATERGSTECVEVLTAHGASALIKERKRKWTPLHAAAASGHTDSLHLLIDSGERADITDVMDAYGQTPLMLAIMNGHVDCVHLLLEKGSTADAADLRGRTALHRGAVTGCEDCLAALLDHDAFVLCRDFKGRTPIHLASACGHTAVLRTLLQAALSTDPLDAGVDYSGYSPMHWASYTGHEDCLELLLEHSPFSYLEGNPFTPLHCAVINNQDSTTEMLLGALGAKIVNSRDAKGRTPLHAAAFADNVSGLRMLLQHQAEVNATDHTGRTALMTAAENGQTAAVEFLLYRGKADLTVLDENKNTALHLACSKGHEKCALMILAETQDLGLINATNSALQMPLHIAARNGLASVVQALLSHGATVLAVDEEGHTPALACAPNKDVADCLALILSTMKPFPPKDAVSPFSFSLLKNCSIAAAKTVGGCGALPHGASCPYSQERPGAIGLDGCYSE
Summary of the method: as §1

FBX038 = target: T2, FBX038 (human, UniProt Q6PIJ6 1-1188, limits assumed)
T2 construct: Printed with a zero; probably FBXO38
T2 sequence (looked up): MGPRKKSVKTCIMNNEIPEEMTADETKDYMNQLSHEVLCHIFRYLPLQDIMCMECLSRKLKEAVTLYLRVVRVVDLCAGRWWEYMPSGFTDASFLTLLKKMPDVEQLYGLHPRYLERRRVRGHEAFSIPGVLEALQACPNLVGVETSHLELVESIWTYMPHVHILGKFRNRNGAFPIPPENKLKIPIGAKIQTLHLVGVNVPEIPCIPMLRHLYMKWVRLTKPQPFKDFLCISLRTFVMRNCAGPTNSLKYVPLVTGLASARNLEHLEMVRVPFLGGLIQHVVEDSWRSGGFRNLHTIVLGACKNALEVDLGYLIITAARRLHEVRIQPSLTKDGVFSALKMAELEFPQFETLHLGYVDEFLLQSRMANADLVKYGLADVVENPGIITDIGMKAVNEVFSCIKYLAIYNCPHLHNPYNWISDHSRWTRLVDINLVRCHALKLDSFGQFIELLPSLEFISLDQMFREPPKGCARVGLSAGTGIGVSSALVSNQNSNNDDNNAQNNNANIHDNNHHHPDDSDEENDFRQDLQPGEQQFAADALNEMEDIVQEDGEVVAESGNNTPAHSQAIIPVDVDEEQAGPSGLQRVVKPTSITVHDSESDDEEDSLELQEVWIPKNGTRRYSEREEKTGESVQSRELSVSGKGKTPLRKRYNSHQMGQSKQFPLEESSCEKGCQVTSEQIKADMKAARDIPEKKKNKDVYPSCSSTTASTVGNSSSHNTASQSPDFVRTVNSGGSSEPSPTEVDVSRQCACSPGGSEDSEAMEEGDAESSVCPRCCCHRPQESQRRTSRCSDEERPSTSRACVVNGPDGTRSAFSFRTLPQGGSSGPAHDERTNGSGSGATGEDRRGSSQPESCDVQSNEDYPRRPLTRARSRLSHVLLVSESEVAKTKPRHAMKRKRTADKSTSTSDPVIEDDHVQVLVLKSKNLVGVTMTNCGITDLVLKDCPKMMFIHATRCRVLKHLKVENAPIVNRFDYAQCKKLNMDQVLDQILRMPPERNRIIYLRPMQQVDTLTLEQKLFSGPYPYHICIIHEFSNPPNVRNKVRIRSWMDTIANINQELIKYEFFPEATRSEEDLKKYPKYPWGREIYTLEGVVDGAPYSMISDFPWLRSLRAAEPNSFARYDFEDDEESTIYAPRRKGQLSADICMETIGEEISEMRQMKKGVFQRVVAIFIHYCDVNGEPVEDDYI
Summary of the method: as §1

Measured: binding result

Sequence of MTR (Q99707 whole entry, the tested form may be a part): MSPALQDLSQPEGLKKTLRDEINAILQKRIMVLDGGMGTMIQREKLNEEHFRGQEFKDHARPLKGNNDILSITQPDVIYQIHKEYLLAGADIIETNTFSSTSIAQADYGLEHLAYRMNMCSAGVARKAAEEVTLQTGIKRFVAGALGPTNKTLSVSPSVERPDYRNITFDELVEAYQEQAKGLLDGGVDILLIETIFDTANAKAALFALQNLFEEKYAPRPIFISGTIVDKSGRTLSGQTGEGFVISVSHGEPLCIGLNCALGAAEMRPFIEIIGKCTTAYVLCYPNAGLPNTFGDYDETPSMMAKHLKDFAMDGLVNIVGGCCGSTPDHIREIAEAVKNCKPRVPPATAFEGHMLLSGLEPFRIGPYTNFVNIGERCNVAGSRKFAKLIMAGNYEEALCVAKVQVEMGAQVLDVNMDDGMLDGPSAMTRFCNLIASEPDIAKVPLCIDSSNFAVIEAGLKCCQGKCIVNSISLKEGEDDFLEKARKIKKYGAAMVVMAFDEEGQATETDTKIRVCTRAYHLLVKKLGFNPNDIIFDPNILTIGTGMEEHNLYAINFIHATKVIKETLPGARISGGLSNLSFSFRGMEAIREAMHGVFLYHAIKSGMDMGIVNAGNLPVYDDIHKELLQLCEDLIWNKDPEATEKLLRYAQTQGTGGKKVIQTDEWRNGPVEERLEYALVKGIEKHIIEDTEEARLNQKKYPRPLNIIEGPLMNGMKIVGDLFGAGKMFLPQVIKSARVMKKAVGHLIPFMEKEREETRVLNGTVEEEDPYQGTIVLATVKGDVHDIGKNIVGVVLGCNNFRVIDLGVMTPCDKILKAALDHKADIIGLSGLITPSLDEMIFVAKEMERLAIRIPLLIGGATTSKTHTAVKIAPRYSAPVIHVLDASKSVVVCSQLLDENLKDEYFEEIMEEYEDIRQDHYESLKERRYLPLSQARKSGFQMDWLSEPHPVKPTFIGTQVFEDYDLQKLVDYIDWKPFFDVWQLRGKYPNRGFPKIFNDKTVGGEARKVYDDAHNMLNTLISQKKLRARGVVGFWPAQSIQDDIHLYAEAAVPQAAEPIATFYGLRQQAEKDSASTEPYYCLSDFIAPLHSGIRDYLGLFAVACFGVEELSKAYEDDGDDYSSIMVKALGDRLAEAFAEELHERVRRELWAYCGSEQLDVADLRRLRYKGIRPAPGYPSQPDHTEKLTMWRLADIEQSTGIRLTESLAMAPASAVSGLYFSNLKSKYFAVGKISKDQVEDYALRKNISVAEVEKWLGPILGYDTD

B1: LZTR1-FLAG (other, human, UniProt Q8N653 1-840, looked up)
chain: MAGPGSTGGQIGAAALAGGARSKVAPSVDFDHSCSDSVEYLTLNFGPFETVHRWRRLPPCDEFVGARRSKHTVVAYKDAIYVFGGDNGKTMLNDLLRFDVKDCSWCRAFTTGTPPAPRYHHSAVVYGSSMFVFGGYTGDIYSNSNLKNKNDLFEYKFATGQWTEWKIEGRLPVARSAHGATVYSDKLWIFAGYDGNARLNDMWTIGLQDRELTCWEEVAQSGEIPPSCCNFPVAVCRDKMFVFSGQSGAKITNNLFQFEFKDKTWTRIPTEHLLRGSPPPPQRRYGHTMVAFDRHLYVFGGAADNTLPNELHCYDVDFQTWEVVQPSSDSEVGGAEVPERACASEEVPTLTYEERVGFKKSRDVFGLDFGTTSAKQPTQPASELPSGRLFHAAAVISDAMYIFGGTVDNNIRSGEMYRFQFSCYPKCTLHEDYGRLWESRQFCDVEFVLGEKEECVQGHVAIVTARSRWLRRKITQARERLAQKLEQEAAPVPREAPGVAAGGARPPLLHVAIREAEARPFEVLMQFLYTDKIKYPRKGHVEDVLLIMDVYKLALSFQLCRLEQLCRQYIEASVDLQNVLVVCESAARLQLSQLKEHCLNFVVKESHFNQVIMMKEFERLSSPLIVEIVRRKQQPPPRTPLDQPVDIGTSLIQDMKAYLEGAGAEFCDITLLLDGHPRPAHKAILAARSSYFEAMFRSFMPEDGQVNISIGEMVPSRQAFESMLRYIYYGEVNMPPEDSLYLFAAPYYYGFYNNRLQAYCKQNLEMNVTVQNVLQILEAADKTQALDMKRHCLHIIVHQFTKVSKLPTLRSLSQQLLLDIIDSLASHISDKQCAELGADI
notes: Expressed in HEK 293T, HeLa or U87 cells; used as cell lysate; also called LZTR1 wild type-FLAG; LZTR1 WT; not shown: FLAG tag at the C-terminus
binds: MTR | ANKRD52 | FBX038
